Experimental data: patent publication US20100311648A1 (AstraZeneca / MedImmune, published 2010)
Positions of bridges follow the written chain, without caps; N, C: chain ends. Non-standard residues stand in square brackets, D forms with d. dPhe(2-CF3) = N[C@H](Cc1ccccc1C(F)(F)F)C(=O)O; dPhe(3,4-F2) = N[C@H](Cc1ccc(F)c(F)c1)C(=O)O; dPhe(3,5-F2) = N[C@H](Cc1cc(F)cc(F)c1)C(=O)O; dPhe(4-CN) = N#Cc1ccc(C[C@@H](N)C(=O)O)cc1; dPhe(2-Cl) = N[C@H](Cc1ccccc1Cl)C(=O)O; dPhe(2-Me) = Cc1ccccc1C[C@@H](N)C(=O)O; dPhe(4-F) = N[C@H](Cc1ccc(F)cc1)C(=O)O; dPhe(2-F) = N[C@H](Cc1ccccc1F)C(=O)O; Orn = NCCC[C@H](N)C(=O)O

B1: Ac-Arg-cyclo(Glu-Asn-D-Phe(2-Cl)-Arg-Trp-Orn)-NH2 (peptide)
peptide: Ac-REN[dPhe(2-Cl)]RW[Orn]-NH2
modifications: lactam 2-7
SMILES: CC(=O)N[C@@H](CCCNC(=N)N)C(=O)N[C@H]1CCC(=O)NCCC[C@@H](C(N)=O)NC(=O)[C@H](Cc2c[nH]c3ccccc23)NC(=O)[C@H](CCCNC(=N)N)NC(=O)[C@@H](Cc2ccccc2Cl)NC(=O)[C@H](CC(N)=O)NC1=O
notes: also called No. 84
B2: Ac-Arg-cyclo(Glu-Asp-D-Phe(4-CN)-Arg-Trp-Orn)-NH2 (peptide)
peptide: Ac-RED[dPhe(4-CN)]RW[Orn]-NH2
modifications: lactam 2-7
SMILES: CC(=O)N[C@@H](CCCNC(=N)N)C(=O)N[C@H]1CCC(=O)NCCC[C@@H](C(N)=O)NC(=O)[C@H](Cc2c[nH]c3ccccc23)NC(=O)[C@H](CCCNC(=N)N)NC(=O)[C@@H](Cc2ccc(C#N)cc2)NC(=O)[C@H](CC(=O)O)NC1=O
notes: also called No. 106
B3: Ac-Arg-cyclo(Glu-Asp-D-Phe(4-CN)-Arg-Trp-Orn)-OH (peptide)
peptide: Ac-RED[dPhe(4-CN)]RW[Orn]-OH
modifications: lactam 2-7
SMILES: CC(=O)N[C@@H](CCCNC(=N)N)C(=O)N[C@H]1CCC(=O)NCCC[C@@H](C(=O)O)NC(=O)[C@H](Cc2c[nH]c3ccccc23)NC(=O)[C@H](CCCNC(=N)N)NC(=O)[C@@H](Cc2ccc(C#N)cc2)NC(=O)[C@H](CC(=O)O)NC1=O
notes: also called No. 107
B4: Ac-Arg-cyclo(Glu-Ala-D-Phe(4-CN)-Arg-Trp-Orn)-NH2 (peptide)
peptide: Ac-REA[dPhe(4-CN)]RW[Orn]-NH2
modifications: lactam 2-7
SMILES: CC(=O)N[C@@H](CCCNC(=N)N)C(=O)N[C@H]1CCC(=O)NCCC[C@@H](C(N)=O)NC(=O)[C@H](Cc2c[nH]c3ccccc23)NC(=O)[C@H](CCCNC(=N)N)NC(=O)[C@@H](Cc2ccc(C#N)cc2)NC(=O)[C@H](C)NC1=O
notes: also called No. 41
B5: Ac-Arg-cyclo(Lys-Gln-D-Phe(4-CN)-Arg-Trp-Asp)-NH2 (peptide)
peptide: Ac-RKQ[dPhe(4-CN)]RWD-NH2
modifications: lactam 2-7
SMILES: CC(=O)N[C@@H](CCCNC(=N)N)C(=O)N[C@H]1CCCCNC(=O)C[C@@H](C(N)=O)NC(=O)[C@H](Cc2c[nH]c3ccccc23)NC(=O)[C@H](CCCNC(=N)N)NC(=O)[C@@H](Cc2ccc(C#N)cc2)NC(=O)[C@H](CCC(N)=O)NC1=O
notes: also called No. 93

How the values were obtained:
[1] = biological target: T1, human melanocortin-4 receptor (human, UniProt P32245 1-332); assay: cell-based or functional assay
T1 sequence (P32245 whole entry): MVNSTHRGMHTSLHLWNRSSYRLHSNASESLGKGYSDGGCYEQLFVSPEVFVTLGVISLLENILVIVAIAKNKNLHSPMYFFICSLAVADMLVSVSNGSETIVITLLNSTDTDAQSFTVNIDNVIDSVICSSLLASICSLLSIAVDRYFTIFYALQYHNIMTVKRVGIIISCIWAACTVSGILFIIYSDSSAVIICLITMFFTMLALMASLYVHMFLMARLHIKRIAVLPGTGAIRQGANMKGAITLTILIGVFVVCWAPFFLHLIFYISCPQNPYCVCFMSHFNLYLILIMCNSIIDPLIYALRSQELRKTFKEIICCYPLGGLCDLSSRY

[2] = biological target: T1, human melanocortin-4 receptor; assay: [I125]-NDP-α-MSH competition, hMC4-R HEK-293 membranes
Experimental: (§1) A competitive inhibition binding assay was performed for exemplified peptides according to the invention using membrane homogenates prepared from HEK-293 cells that express recombinant hMC4-R, hMC3-R, or hMC5-R, and from B-16 mouse melanoma cells (containing endogenous MC1-R). In some instances, HEK-293 cells that express recombinant hMC1-R were employed. Assays were performed in 96 well GF/B Millipore multiscreen filtration plates (MAFB NOB10) pre-coated with 0.5% bovine serum albumin (Fraction V). […] After incubation for 60 minutes at 37° C., the assay mixture was filtered and the membranes washed three times with ice-cold buffer. Filters were dried and counted in a gamma counter for bound radioactivity. […] Each assay was conducted in triplicate and the actual mean values are described, with results less than 0% reported as 0%. Ki values for test peptides of the present invention were determined using Graph-Pad Prism® curve-fitting software.

melanocortin-1 receptor = biological target: T2, melanocortin-1 receptor (mouse (B-16 melanoma cells); in some …, UniProt Q01727 1-315); assay: [I125]-NDP-α-MSH competition, MC1-R membranes
T2 construct: whole, on cells; membrane homogenates; also called MC1-R; mouse B16 MC1-R
T2 sequence (Q01727 whole entry): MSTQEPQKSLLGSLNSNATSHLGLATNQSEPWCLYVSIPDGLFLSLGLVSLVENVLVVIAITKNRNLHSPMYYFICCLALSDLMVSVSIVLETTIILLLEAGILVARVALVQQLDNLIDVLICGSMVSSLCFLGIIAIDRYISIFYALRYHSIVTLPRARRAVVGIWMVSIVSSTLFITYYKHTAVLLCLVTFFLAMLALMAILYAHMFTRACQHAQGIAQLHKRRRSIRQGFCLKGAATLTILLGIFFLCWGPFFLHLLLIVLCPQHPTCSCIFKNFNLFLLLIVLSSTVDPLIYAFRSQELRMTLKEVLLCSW
Experimental: as §1

Binder	EC50, cAMP, 0.1 ng/mL Doxycycline [1] [nM]	EC50, cAMP, 10 ng/mL Doxycycline [1] [nM]	Intrinsic Activity, cAMP, 0.1 ng/mL Doxycycline [1] [%]	Intrinsic Activity, cAMP, 10 ng/mL Doxycycline [1] [%]	Ki [2] [nM]	Ki (melanocortin-1 receptor) [nM]
RDPXRWK (N-terminal Ac; D-Phe(4-F) 4; lactam Asp 2-Lys 7; C-terminal NH2, also called No. 103) [Ac-Arg-cyclo(Asp-Pro-D-Phe(4-F)-Arg-Trp-Lys)-NH2]	1	0.13	32	100	4	
Ac-RDN[dPhe(4-CN)]RWK-NH2 (lactam 2-7, also called No. 89) [Ac-Arg-cyclo(Asp-Asn-D-Phe(4-CN)-Arg-Trp-Lys)-NH2]		17	6	87	48	
RDQXRWK (N-terminal Ac; D-Phe(4-CN) 4; lactam Asp 2-Lys 7; C-terminal NH2, also called No. 90) [Ac-Arg-cyclo(Asp-Gln-D-Phe(4-CN)-Arg-Trp-Lys)-NH2]	4	0.283	31	96	5	
Ac-R[Orn]N[dPhe(4-CN)]RWE-NH2 (lactam 2-7, also called No. 91) [Ac-Arg-cyclo(Orn-Asn-D-Phe(4-CN)-Arg-Trp-Glu)-NH2]	1	0.265	18	96	4	
Ac-REQ[dPhe(4-F)]RW[Orn]-NH2 (lactam 2-7, also called No. 92) [Ac-Arg-cyclo(Glu-Gln-D-Phe(4-F)-Arg-Trp-Orn)-NH2]	0.1	0.04	81	89	2	
XDQXRWK (N-terminal Ac; D-Arg 1; D-Phe(2-F) 4; lactam Asp 2-Lys 7; C-terminal NH2, also called No. 82) [Ac-D-Arg-cyclo(Asp-Gln-D-Phe(2-F)-Arg-Trp-Lys)-NH2]	2	0.095	79	95	10	
XDQXRWK (N-terminal Ac; D-Arg 1; D-Phe(4-CN) 4; lactam Asp 2-Lys 7; C-terminal NH2, also called No. 81) [Ac-D-Arg-cyclo(Asp-Gln-D-Phe(4-CN)-Arg-Trp-Lys)-NH2]	4	0.45	23	85	13	
Ac-R[Orn]N[dPhe(2-Cl)]RWE-NH2 (lactam 2-7) [Ac-Arg-cyclo(Orn-Asn-D-Phe(2-Cl)-Arg-Trp-Glu)-NH2]	0.72	0.065		100	7	
Ac-REQ[dPhe(2-Cl)]RW[Orn]-NH2 (lactam 2-7, also called No. 34) [Ac-Arg-cyclo(Glu-Gln-D-Phe(2-Cl)-Arg-Trp-Orn)-NH2]	1	0.137	79	97	7	128
B1	0.633	0.09	78	97	7	245
B2		113	3	77	647	10000
Ac-REN[dPhe(4-F)]RW[Orn]-NH2 (lactam 2-7, also called No. 69) [Ac-Arg-cyclo(Glu-Asn-D-Phe(4-F)-Arg-Trp-Orn)-NH2]	0.25	0.095	76	92	3	150
B3			4	64	6460	10000
Ac-REN[dPhe(4-CN)]RW[Orn]-NH2 (lactam 2-7; also: acetate salt, acetate salt form; also called Ex 43) [Ac-Arg-cyclo(Glu-Asn-D-Phe(4-CN)-Arg-Trp-Orn)-NH2]	1	0.177	43	100	5	870
Ac-RES[dPhe(2-F)]RW[Orn]-NH2 (lactam 2-7, also called No. 58) [Ac-Arg-cyclo(Glu-Ser-D-Phe(2-F)-Arg-Trp-Orn)-NH2]	5	0.25	67	100		138
B4		0.8	5	84	3	4300
RDPXRWK (N-terminal Ac; D-Phe(2-F) 4; lactam Asp 2-Lys 7; C-terminal NH2) [Ac-Arg-cyclo(Asp-Pro-D-Phe(2-F)-Arg-Trp-Lys)-NH2]	191	10	16	100	78	
XDQXRWK (N-terminal Ac; D-Arg 1; D-Phe(3,4-diF) 4; lactam Asp 2-Lys 7; C-terminal NH2, also called No. 78) [Ac-D-Arg-cyclo(Asp-Gln-D-Phe(3,4-diF)-Arg-Trp-Lys)-NH2]	2	0.2	48	89	8	
Ac-R[Orn]N[dPhe(2-CF3)]RWE-NH2 (lactam 2-7) [Ac-Arg-cyclo(Orn-Asn-D-Phe(2-CF3)-Arg-Trp-Glu)-NH2]	1	0.18	50	112	5	
B5	0.3	0.17	44	97	1	
Ac-R[Orn]N[dPhe(3,5-F2)]RWE-NH2 (lactam 2-7, also called No. 77) [Ac-Arg-cyclo(Orn-Asn-D-Phe(3,5-diF)-Arg-Trp-Glu)-NH2]	3	0.155	34	80	8	
XDQXRWK (N-terminal Ac; D-Arg 1; D-Phe(4-F) 4; lactam Asp 2-Lys 7; C-terminal NH2, also called No. 83) [Ac-D-Arg-cyclo(Asp-Gln-D-Phe(4-F)-Arg-Trp-Lys)-NH2]	0.75	0.075	78	94	6	
Ac-R[Orn]N[dPhe(3,4-F2)]RWE-NH2 (lactam 2-7, also called No. 75) [Ac-Arg-cyclo(Orn-Asn-D-Phe(3,4-diF)-Arg-Trp-Glu)-NH2]	0.65	0.125	43		3	
Ac-REQ[dPhe(2-Me)]RW[Orn]-NH2 (lactam 2-7, also called No. 110) [Ac-Arg-cyclo(Glu-Gln-D-Phe(2-Me)-Arg-Trp-Orn)-NH2]	0.6	0.06	84	105		105
